Measured values published in patent US20170152307A1 (Janssen / Centocor, published 2017).
Like-named read-outs stand apart in the source and are kept apart here. Where no end group is shown, it is not given here. The star is where a group is joined. Biotin = O=C1N[C@H]2[C@H](CS[C@H]2CCCCC(=O)*)N1

Tests used:
tau 52-71 (A62) = molecular target: T1, tau 52-71 (A62) (human, N-terminal biotin; not carried in the letters); test: alanine-scan peptide ELISA
T1 construct: E62A
T1 peptide: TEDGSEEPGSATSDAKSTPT
Description: (§1) Plates were washed five times with TBS-T followed by the addition of secondary antibody [goat Anti-Human IgG F(ab′)₂ (Jackson Labs) at 1:2000 dilution], diluted in TBS plus 0.25% BSA, and incubated at RT for 1 hour. Following incubation, plates were washed four times in TBS-T and developed with SureBlue Reserve TMB Microwell Peroxidase Substrate (KPL) for approximately 90 seconds. The reaction was immediately halted by the addition of TMB Stop Solution (KPL) and the absorbance at 450 nm was measured using an ELISA plate reader. Each experiment was conducted in triplicate across three different days. Reactivity was considered positive when values were equal to or higher than an OD of 0.4 in the ELISA assay. […] (−) for average of two O.D. 450 nm readings <0.3; (−/+) for >0.5 and <1.0; (+) for >1.0 and <1.5; (++) for >1.5. […] (−) for average of three O.D. 450 nm readings <0.3; (−/+) for >0.5 and <1.0; (+) for >1.0 and <1.5; (++) for >1.5.
(§2) To further characterize the specificity and amino acid contribution to binding of each of the recover mAbs, their reactivity to tau peptides with each position replaced with Alanine was tested by ELISA. […] (−) for average of two O.D. 450 nm readings <0.3; (−/+) for >0.5 and <1.0; (+) for >1.0 and <1.5; (++) for >1.5.

tau 52-71 (A65) = molecular target: T2, tau 52-71 (A65) (human, N-terminal biotin on the synthetic peptide; not carried in the letters); test: alanine-scan peptide ELISA
T2 construct: D65A
T2 peptide: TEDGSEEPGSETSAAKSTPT
Description: as §1, §2

tau 52-71 (A67) = molecular target: T3, tau 52-71 (A67) (human, N-terminal biotin on the synthetic peptide; not carried in the letters); test: alanine-scan peptide ELISA
T3 construct: K67A
T3 peptide: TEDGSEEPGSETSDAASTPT
Description: as §1, §2

tau 52-71 (A52) = molecular target: T4, tau 52-71 (A52) (human, N-terminal biotin, not carried by the letters); test: alanine-scan peptide ELISA, 1 ug/mL IgG
T4 construct: T52A
T4 peptide: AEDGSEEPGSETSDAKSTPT
Description: as §1, §2

tau 52-71 (A53) = molecular target: T5, tau 52-71 (A53) (human, N-terminal biotin, not carried by the letters); test: alanine-scan peptide ELISA, 1 ug/mL IgG
T5 construct: E53A
T5 peptide: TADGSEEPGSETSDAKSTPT
Description: as §1, §2

tau 52-71 (A54) = molecular target: T6, tau 52-71 (A54) (human, N-terminal biotin, not carried by the letters); test: alanine-scan peptide ELISA, 1 ug/mL IgG
T6 construct: D54A
T6 peptide: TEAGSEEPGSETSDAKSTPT
Description: as §1, §2

tau 52-71 (A55) = molecular target: T7, tau 52-71 (A55) (human, N-terminal biotin (all tau peptides were synthesized with an amino-terminal biotin group); not carried in the letters); test: alanine-scan peptide ELISA, 1 ug/mL IgG
T7 construct: G55A
T7 peptide: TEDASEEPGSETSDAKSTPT
Description: as §1, §2

tau 52-71 (A56) = molecular target: T8, tau 52-71 (A56) (human, N-terminal biotin; not carried in the letters); test: alanine-scan peptide ELISA, 1 ug/mL IgG
T8 construct: S56A
T8 peptide: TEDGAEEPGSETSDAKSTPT
Description: as §1, §2

tau 52-71 (A57) = molecular target: T9, tau 52-71 (A57) (human, N-terminal biotin; not carried in the letters); test: alanine-scan peptide ELISA, 1 ug/mL IgG
T9 construct: E57A
T9 peptide: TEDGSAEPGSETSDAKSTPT
Description: as §1, §2

tau 52-71 (A58) = molecular target: T10, tau 52-71 (A58) (human, N-terminal biotin; not carried in the letters); test: alanine-scan peptide ELISA, 1 ug/mL IgG
T10 construct: E58A
T10 peptide: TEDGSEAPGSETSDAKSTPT
Description: as §1, §2

tau 52-71 (A59) = molecular target: T11, tau 52-71 (A59) (human, N-terminal biotin; not carried in the letters); test: alanine-scan peptide ELISA, 1 ug/mL IgG
T11 construct: P59A
T11 peptide: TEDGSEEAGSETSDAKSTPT
Description: as §1, §2

tau 52-71 (A60) = molecular target: T12, tau 52-71 (A60) (human, N-terminal biotin; not carried in the letters); test: alanine-scan peptide ELISA, 1 ug/mL IgG
T12 construct: G60A
T12 peptide: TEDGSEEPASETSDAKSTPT
Description: as §1, §2

tau 52-71 (A61) = molecular target: T13, tau 52-71 (A61) (human, N-terminal biotin; not carried in the letters); test: alanine-scan peptide ELISA, 1 ug/mL IgG
T13 construct: S61A
T13 peptide: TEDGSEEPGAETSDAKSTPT
Description: as §1, §2

tau 52-71 (A63) = molecular target: T14, tau 52-71 (A63) (human, N-terminal biotin on the synthetic peptide; not carried in the letters); test: alanine-scan peptide ELISA, 1 ug/mL IgG
T14 construct: T63A
T14 peptide: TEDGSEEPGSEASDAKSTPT
Description: as §1, §2

tau 52-71 (A64) = molecular target: T15, tau 52-71 (A64) (human, N-terminal biotin on the synthetic peptide; not carried in the letters); test: alanine-scan peptide ELISA, 1 ug/mL IgG
T15 construct: S64A
T15 peptide: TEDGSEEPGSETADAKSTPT
Description: as §1, §2

tau 52-71 (A68) = molecular target: T16, tau 52-71 (A68) (human, N-terminal biotin on the synthetic peptide; not carried in the letters); test: alanine-scan peptide ELISA, 1 ug/mL IgG
T16 construct: S68A
T16 peptide: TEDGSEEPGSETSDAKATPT
Description: as §1, §2

tau 52-71 (A69) = molecular target: T17, tau 52-71 (A69) (human, N-terminal biotin on the synthetic peptide; not carried in the letters); test: alanine-scan peptide ELISA, 1 ug/mL IgG
T17 construct: T69A
T17 peptide: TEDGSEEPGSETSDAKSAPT
Description: as §1, §2

tau 52-71 (A70) = molecular target: T18, tau 52-71 (A70) (human, N-terminal biotin on the synthetic peptide; not carried in the letters); test: alanine-scan peptide ELISA, 1 ug/mL IgG
T18 construct: P70A
T18 peptide: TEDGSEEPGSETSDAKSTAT
Description: as §1, §2

tau 52-71 (A71) = molecular target: T19, tau 52-71 (A71) (human, N-terminal biotin on the synthetic peptide; not carried in the letters); test: alanine-scan peptide ELISA, 1 ug/mL IgG
T19 construct: T71A
T19 peptide: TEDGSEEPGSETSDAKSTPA
Description: as §1, §2

ptau 48-71 (p64) = molecular target: T20, ptau 48-71 (p64) (human); test: peptide ELISA, biotinylated peptide on streptavidin plate, IgG titrated (Example 14)
T20 construct: also called ptau 48-71 (Ser64)
T20 sequence (main, as listed by the source): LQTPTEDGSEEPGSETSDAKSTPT
Description: as §1
(§3) (−) for average of two O.D. 450 nm readings <0.3; (−/+) for >0.5 and <1.0; (+) for >1.0 and <1.5; (++) for >1.5.

tau 42-61 = molecular target: T21, tau 42-61 (human, N-terminal biotin, not carried by the letters); test: peptide ELISA, biotinylated overlapping peptide on streptavidin plate, IgG titrated (Example 9)
T21 peptide: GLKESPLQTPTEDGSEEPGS
Description: (§4) Briefly, 96-well streptavidin-binding plates (Thermo-Fisher) were coated with 2 μg/ml of tau peptides diluted in TBS and incubated overnight at 4° C. […] Plates were washed five times with TBS-T followed by the addition of secondary antibody [goat Anti-Human IgG F(ab′)₂ (Jackson Labs) at 1:2000 dilution], diluted in TBS plus 0.25% BSA, and incubated at RT for 1 hour. Following incubation, plates were washed four times in TBS-T and developed with SureBlue Reserve TMB Microwell Peroxidase Substrate (KPL) for approximately 90 seconds. The reaction was immediately halted by the addition of TMB Stop Solution (KPL) and the absorbance at 450 nm was measured using an ELISA plate reader. Each experiment was conducted in triplicate across three different days. Reactivity was considered positive when values were equal to or higher than an OD of 0.4 in the ELISA assay. […] (−) for average of two O.D. 450 nm readings <0.3; (−/+) for >0.5 and <1.0; (+) for >1.0 and <1.5; (++) for >1.5. […] (−) for average of three O.D. 450 nm readings <0.3; (−/+) for >0.5 and <1.0; (+) for >1.0 and <1.5; (++) for >1.5.

tau 62-81 = molecular target: T22, tau 62-81 (human, N-terminal biotin, not carried by the letters); test: as above
T22 peptide: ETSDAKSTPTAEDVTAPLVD
Description: as §4

tau 72-91 = molecular target: T23, tau 72-91 (human, N-terminal biotin, not carried by the letters); test: as above
T23 peptide: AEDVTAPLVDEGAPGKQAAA
Description: as §4

tau 82-103 = tau 82-103 (human, N-terminal biotin, not carried by the letters); test: as above
Sequence of tau 82-103 (human, N-terminal biotin, not carried by the letters) (peptide, as listed by the source limits assumed): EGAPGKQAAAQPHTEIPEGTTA
Description: as §4

tau 405-423 = molecular target: T24, tau 405-423 (human); test: peptide ELISA
T24 peptide: Biotin-PRHLSNVSSTGSIDMVDSP
Description: as §4

tau 409-428 = molecular target: T25, tau 409-428 (human, N-terminal biotin, not carried by the letters); test: peptide ELISA
T25 peptide: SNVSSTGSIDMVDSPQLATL
Description: as §4

[1] = molecular target: ptau 406-429 (pS416, pS422) (human); test: peptide ELISA, 1 ug/mL IgG
Description: (§5) Plates were coated in TBS overnight at 4° C. The following day, plates were washed five times with TB S/0.05% TWEEN® (TBS-T) and blocked with 150 IA of TBS-T plus 2.5% BSA (blocking buffer) for 2 hour. Tau peptides were captured on streptavidin-coated plates (Pierce) at a concentration of 0.43 μM in 100 μl of TBS. Tau peptides used to set up ELISA assays were the same used as baits in corresponding sorting experiment. Tau peptide-coated plates were then incubated at RT for 1.5 hours. All plates were then washed five times with TBS/0.05% TWEEN® and blocked with 150 μl and 300 μl (tau peptide plates only) of blocking buffer and incubated at RT for 2 hours. […] Primary antibodies were incubated for 2 hours at RT and washed five times in TBS-T. Finally, goat-anti human IgG Fab or goat anti-mouse HRP (Jackson Labs) was used at 1:2000 and 1:4000, respectively, and incubated for 1 hour at RT. Plates were washed five times in TBS-T and developed with SureBlue Reserve TMB Microwell Peroxidase Substrate (KPL). The reaction was halted by the addition of 50 μl and 100 μl (peptide plates) of TMB Stop Solution (KPL) and the absorbance at 450 nm was measured using an ELISA plate reader. Supernatants with the aforementioned binding activities were subsequently reconfirmed in an independent ELISA experiment.

[2] = molecular target: ptau 406-429 (pS416, pS422) (human); test: peptide ELISA, biotinylated peptide on streptavidin plate, IgG titrated (Example 6)
Description: as §5

tau 389-441 = molecular target: T26, tau 389-441 (human, N-terminal biotin, not carried by the letters); test: as above
T26 peptide: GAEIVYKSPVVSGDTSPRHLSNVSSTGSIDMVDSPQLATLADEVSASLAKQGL
Description: as §5

ptau 404-421 = molecular target: T27, ptau 404-421 (human); test: peptide ELISA
T27 construct: also called ptau 404-421 p414
Description: as §4

ptau 406-423 = ptau 406-423 (human); test: peptide ELISA
Description: as §4

[3] = molecular target: ptau 406-429 (pS416, pS422) (human); test: peptide ELISA, 1 ug/mL IgG; remark: listed apart in the source
ptau 404-429 = ptau 404-429 (human); test: peptide ELISA, 1 ug/mL IgG
ptau 412-429 = ptau 412-429 (human); test: peptide ELISA, 1 ug/mL IgG
ptau 412-434 = molecular target: T28, ptau 412-434 (human); test: peptide ELISA, 1 ug/mL IgG
T28 construct: also called ptau 412-434 p422, 427

ptau 299-323 p305, 316 = ptau 299-323 p305, 316 (human); test: peptide ELISA, biotinylated peptide on streptavidin plate, IgG titrated (Example 14)
Sequence of ptau 299-323 p305, 316 (human) (main, as listed by the source): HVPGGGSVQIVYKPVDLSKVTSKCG
Description: as §1, §3

[4] = molecular target: ptau 221-245 (pT231, pS238) (human); test: peptide ELISA, 1 ug/mL IgG
Description: as §5

ptau 228-245 (pS238) = ptau 228-245 (pS238) (human); test: peptide ELISA, 1 ug/mL IgG
Description: as §5

[5] = molecular target: ptau 225-245 (pS235, pS238) (human); test: peptide ELISA, 1 ug/mL IgG
Description: as §5

B1: CBTAU-28.1 (antibody, human IgG1, V domains shown)
VH: QVQLQQSGAEVKKPGESLKISCEASGYSFTNYWIGWVRQMPGKGLEWMGIIYPGDSDTRYSPPFQGQVTITADRSITTAYLEWSSLKASDTAMYYCARVGRPSKGGWFDPWGQGTLVTVSS
VL: DIQMTQSPDSLAVSLGERATINCESSQTLLYSSNEKNYLAWYQQKPGQPPKLLISWASTPESGVPDRFSGSGSGTSFTLTISSLQAEDVAVYYCQQYYNSPYTFGQGTRLEIK
notes: recombinant full-length human IgG1
binding result (tau 52-71 (A62)): no binding (tested: OD450 <0.3 at 1 ug/mL) | binding result (tau 52-71 (A65)): no binding (tested: OD450 <0.3 at 1 ug/mL) | binding result (tau 52-71 (A67)): no binding (tested: OD450 <0.3 at 1 ug/mL) | binding result (tau 52-71 (A52)): binds | binding result (tau 52-71 (A53)): binds | binding result (tau 52-71 (A54)): binds | binding result (tau 52-71 (A55)): binds | binding result (tau 52-71 (A56)): binds | binding result (tau 52-71 (A57)): binds | binding result (tau 52-71 (A58)): binds | binding result (tau 52-71 (A59)): binds | binding result (tau 52-71 (A60)): binds | binding result (tau 52-71 (A61)): binds | binding result (tau 52-71 (A63)): binds | binding result (tau 52-71 (A64)): binds | binding result (tau 52-71 (A68)): binds | binding result (tau 52-71 (A69)): binds | binding result (tau 52-71 (A70)): binds | binding result (tau 52-71 (A71)): binds | EC50 (read off the curve) (ptau 48-71 (p64)): ~0.2 mg/L | binding result (tau 42-61): no binding (tested: 5 µg/mL) | binding result (tau 62-81): no binding (tested: 5 µg/mL) | binding result (tau 72-91): no binding (tested: 5 µg/mL) | binding result (tau 82-103): no binding (tested: 5 µg/mL)

B2: CBTAU-22.1 (antibody, human IgG1, V domains shown)
VH: QVQLVQSGAEVKKPGAPVKVSCETSGYRFSDYNVHWVRQAPGQGPEWIGRISPNSGGTKYAQKFQGRVTMTRDMSMNTAYMELSGLRSDDTAVYYCVRGHCDGTTCSRAYWGQGTLVTVSS
VL: DVVMTQSPLSLPVTPGEPASISCRSSQSLLHRSGHKYLHWYLQRPGQSPQVLIYLGSNRASGVPDRFSGSGSGTDFTLKISRVEAEDVGLYYCMQTLQTPWTFGQGTKVEIK
notes: as for B1
binding result (tau 405-423): no binding (tested: OD450 <0.3 at 2 ug/mL) | binding result (tau 409-428): no binding (tested: OD450 <0.3 at 2 ug/mL) | OD450 [1]: > 1.5 od | EC50 (read off the curve) [2]: ~0.04 mg/L | binding result (tau 389-441): no binding (tested: 5 µg/mL)

B3: CBTAU-27.1 (antibody, human IgG1, V domains shown)
VH: QVQLVESGPEMRKPGESLKISCKTSGYIFSDYWTAWVRQLPGKGLQWMGIIYSGDSDTRYHPSVQGHVTMSTDSSLTTAYLQWSSLKASDTGIYYCARLDARVDAGWQLDSWGQGTLVTVSS
VL: DIQLTQSPDSLAVSLGERATINCKSSQSVFSRDNNKNYLAWYQHKSGQPPKLLFFWASSRESGVSDRFSGSGSGTDFTLTIDNLQAEDVALYYCQHYFNTPHNFGQGTKLEIK
notes: as for B1
OD450 (ptau 404-421): < 0.3 od | OD450 (ptau 406-423): < 0.3 od | OD450 [3]: 0.5 to 1 od | OD450 (ptau 404-429): 0.5 to 1 od | OD450 (ptau 412-429): 0.5 to 1 od | OD450 (ptau 412-434): 0.5 to 1 od | EC50 (read off the curve) (ptau 299-323 p305, 316): ~0.01 mg/L

B4: CBTAU-24.1 (antibody, human IgG1, V domains shown)
VH: QVQLVQSGAEVKKPGASVKVSCTASGYTFTGYYLHWVRQAPGQGLEWMGWVNPRSGGTSYPPKFQGRVTMTRDTSINTAYMDLTWLTSDDTAVYYCAVGRIPDVTAFDIWGQGTPVTVSS
VL: DIQMTQSPDSLAVSLGERATINCKSSESLLYDSNNKNYLAWYQQKPGQPPKLLIYWASTRESGVPDRFSGSGSETDFTLTISSLQAEDVAVYHCQQYFSTPWTFGQGTKLEIK
notes: as for B1
OD450 [4]: > 1.5 od | OD450 (ptau 228-245 (pS238)): > 1.5 od | OD450 [5]: > 1.5 od
